Tests used:
Test in all cases: ELISA, growth factor coated at 10 ug/ml, antibody at 10 ug/ml, mean of duplicate wells
[1] = molecular target: Activin A (R&D Systems 338-AC) (UniProt P08476)
[2] = molecular target: Activin B (R&D Systems 659-AB) (UniProt P09529)
[3] = molecular target: BMP-2 (R&D Systems 355-BEC/CF) (UniProt P12643)
[4] = molecular target: BMP-5 (R&D Systems 615-BM) (UniProt P22003)
[5] = molecular target: BMP-6 (R&D Systems 507-BP) (UniProt P22004)
[6] = molecular target: BMP-7 (R&D Systems 354-BP) (UniProt P18075)
Sequence of BMP-7 (R&D Systems 354-BP) (P18075 293-431 limits assumed): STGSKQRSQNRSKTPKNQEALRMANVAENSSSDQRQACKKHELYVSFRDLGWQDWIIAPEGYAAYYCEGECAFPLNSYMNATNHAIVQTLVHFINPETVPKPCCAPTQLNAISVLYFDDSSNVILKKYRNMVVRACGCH

[7] = molecular target: IGF-1 (R&D Systems 291-G1) (UniProt P05019)
Sequence of IGF-1 (R&D Systems 291-G1) (P05019 49-118 limits assumed): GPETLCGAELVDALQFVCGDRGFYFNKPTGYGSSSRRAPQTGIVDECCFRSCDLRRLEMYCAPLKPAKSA

[8] = molecular target: TGF-alpha (R&D Systems 239-A) (UniProt P01135)
Sequence of TGF-alpha (R&D Systems 239-A) (P01135 40-89 limits assumed): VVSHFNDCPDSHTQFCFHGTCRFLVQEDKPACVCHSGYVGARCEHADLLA

[9] = molecular target: TGF-beta1 (Peprotech, Inc. 100-21R) (UniProt P01137)
Sequence of TGF-beta1 (Peprotech, Inc. 100-21R) (P01137 279-390 limits assumed): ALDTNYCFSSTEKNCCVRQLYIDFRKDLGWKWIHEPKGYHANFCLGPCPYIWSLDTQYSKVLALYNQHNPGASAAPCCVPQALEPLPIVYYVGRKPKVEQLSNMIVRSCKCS

[10] = molecular target: TGF-beta2 (Peprotech, Inc. 100-35) (UniProt P61812)
Sequence of TGF-beta2 (Peprotech, Inc. 100-35) (P61812 303-414 limits assumed): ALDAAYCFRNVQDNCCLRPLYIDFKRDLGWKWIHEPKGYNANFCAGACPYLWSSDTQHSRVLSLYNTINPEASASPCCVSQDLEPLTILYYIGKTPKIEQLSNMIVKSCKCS

[11] = molecular target: recombinant human GDF-11 (Peprotech, Inc., Cat. # 120-11, carrier-free) (human) (UniProt O95390)
Sequence of recombinant human GDF-11 (Peprotech, Inc., Cat. # 120-11, carrier-free) (human) (O95390 299-407 limits assumed): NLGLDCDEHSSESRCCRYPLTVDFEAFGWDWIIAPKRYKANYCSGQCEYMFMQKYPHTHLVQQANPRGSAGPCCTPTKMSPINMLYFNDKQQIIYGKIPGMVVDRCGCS

[12] = molecular target: recombinant mouse myostatin (R&D systems, Cat. #788-G8/CF, carrier-free) (mouse) (UniProt O08689)
Sequence of recombinant mouse myostatin (R&D systems, Cat. #788-G8/CF, carrier-free) (mouse) (O08689 268-376): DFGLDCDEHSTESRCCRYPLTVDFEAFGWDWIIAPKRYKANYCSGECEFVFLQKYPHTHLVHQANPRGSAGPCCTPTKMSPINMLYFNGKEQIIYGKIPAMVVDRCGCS

Sequence of BMP-6 (R&D Systems 507-BP) (P22004 382-513 limits assumed): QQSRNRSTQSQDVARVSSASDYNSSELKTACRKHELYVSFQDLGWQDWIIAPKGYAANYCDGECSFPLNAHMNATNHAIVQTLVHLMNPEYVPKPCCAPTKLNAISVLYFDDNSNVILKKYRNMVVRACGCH
Sequence of Activin A (R&D Systems 338-AC) (P08476 311-426 limits assumed): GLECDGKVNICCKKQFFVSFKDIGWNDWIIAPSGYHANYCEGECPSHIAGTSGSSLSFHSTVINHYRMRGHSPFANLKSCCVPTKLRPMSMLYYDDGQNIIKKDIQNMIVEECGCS
Sequence of BMP-5 (R&D Systems 615-BM) (P22003 317-454 limits assumed): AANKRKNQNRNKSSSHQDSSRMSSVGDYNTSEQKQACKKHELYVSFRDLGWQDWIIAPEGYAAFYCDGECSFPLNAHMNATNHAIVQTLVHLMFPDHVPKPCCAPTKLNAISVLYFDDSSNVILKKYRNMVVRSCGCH
Sequence of BMP-2 (R&D Systems 355-BEC/CF) (P12643 283-396 limits assumed): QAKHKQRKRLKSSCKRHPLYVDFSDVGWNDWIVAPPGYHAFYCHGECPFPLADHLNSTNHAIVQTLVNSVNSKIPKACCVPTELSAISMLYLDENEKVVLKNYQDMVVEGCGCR
Sequence of Activin B (R&D Systems 659-AB) (P09529 293-407 limits assumed): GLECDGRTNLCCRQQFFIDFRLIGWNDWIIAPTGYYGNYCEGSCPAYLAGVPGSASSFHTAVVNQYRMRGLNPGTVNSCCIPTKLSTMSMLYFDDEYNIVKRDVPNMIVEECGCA

absorbance at 490 nm [1]: 0.049 OD 490 nm | absorbance at 490 nm [2]: 0.0485 OD 490 nm | absorbance at 490 nm [3]: 0.0525 OD 490 nm | absorbance at 490 nm [4]: 0.038 OD 490 nm | absorbance at 490 nm [5]: 0.0745 OD 490 nm | absorbance at 490 nm [6]: 0.042 OD 490 nm | absorbance at 490 nm [7]: 0.045 OD 490 nm | absorbance at 490 nm [8]: 0.0445 OD 490 nm | absorbance at 490 nm [9]: 0.0425 OD 490 nm | absorbance at 490 nm [10]: 0.0525 OD 490 nm | absorbance at 490 nm [11]: 2.62 OD 490 nm | absorbance at 490 nm [12]: 2.94 OD 490 nm
Substance: polyclonal anti-myostatin antibody (R&D Systems, catalog #AF788)

Reference: patent US20070178095A1
